What was measured:
Assay in all cases: Native-PAGE of mixed CL and Im proteins, 30 min at room temperature
Im8 protein = molecular target: T1, Im8 protein (Escherichia coli, UniProt P09881 1-85)
T1 construct: Expressed from pET23a in E. coli BL21(DE3) and purified on nickel beads; a tag is not described
T1 sequence: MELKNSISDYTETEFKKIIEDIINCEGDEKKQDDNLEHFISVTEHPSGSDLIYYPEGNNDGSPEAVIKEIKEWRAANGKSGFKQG

Im9 protein = molecular target: T2, Im9 protein (Escherichia coli, UniProt P13479 1-86)
T2 construct: Expressed from pET23a in E. coli BL21(DE3) and purified on nickel beads; a tag is not described

Im7 protein = molecular target: T3, Im7 protein (Escherichia coli, UniProt Q03708 1-87)
T3 construct: Expressed from pET23a in E. coli BL21(DE3) and purified on nickel beads; a tag is not described
T3 sequence: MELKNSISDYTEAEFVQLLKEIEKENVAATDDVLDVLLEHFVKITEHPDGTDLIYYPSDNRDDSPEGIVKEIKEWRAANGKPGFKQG

Im2 protein = molecular target: T4, Im2 protein (Escherichia coli, UniProt P04482 1-86)
T4 construct: Expressed from pET23a in E. coli BL21(DE3) and purified on nickel beads; a tag is not described; also called immunity 2
T4 sequence: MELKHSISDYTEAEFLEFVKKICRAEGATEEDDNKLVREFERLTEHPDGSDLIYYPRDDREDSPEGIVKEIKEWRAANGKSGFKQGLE

T2 sequence (P13479 whole entry): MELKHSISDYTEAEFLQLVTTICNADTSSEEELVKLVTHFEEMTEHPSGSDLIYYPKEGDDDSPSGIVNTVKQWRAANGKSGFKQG

B1: CL8 protein (other)
chain: MSKSNEPGKATGEGKPVGDKWLDDAGKDSGAPIPDRIADKLRDKEFENFDDFRETFWEEVSKDPELSKQFNPGNKKRLSQGLAPRARNKDTVGGRRSFELNHQKPIEQDGGVYDMDNLRITTPKRNIDIEG
notes: Expressed from pET23a in E. coli BL21(DE3) and purified on nickel beads; a tag is not described
B1: binds (Im8 protein).

B2: CL9 protein (other)
chain: MSKSNEPGKATGEGKPVGDKWLDDAGKDSGAPIPDRIADKLRDKEFESFDDFRETVWEEVSKDPELSKNLNPSNKSSVSKGYSPFTPKNQQVGGRKVYELNHQKPIEQGGEVYDMDNIRVTTPKRNIDIEG
notes: as for B1
B2: binds (Im9 protein).

B3: CL7 protein (other)
chain: MSKSNEPGKATGEGKPVNNKWLNNAGKDLGSPVPDRIANKLRDKEFESFDDFRETFWEEVSKDPELSKQFSRNNNDRMKVGKAPKTRTQDVSGKRTSFELNHQKPIEQNGGVYDMDNISVVTPKRNIDIEG
notes: as for B1
B3: binds (Im7 protein).

B4: CL2 protein (other)
chain: MSKSNEPGKATGEGKPVGDKWLDDAGKDSGAPIPDRIADKLRDKEFENFDDFRETFWEEVSKDPDLSKQFKGSNKTNIQKGKAPFARKKDQVGGRERFELNHQKPIEQDGGVYDMNNIRVTTPKRNIDIEG
notes: as for B1
B4: binds (Im2 protein).
